Non-standard residues stand in square brackets, D forms with d. Residues, ends and D or L forms follow the SMILES beside them. Groups on a side chain read outwards from the residue. *: point of attachment. RhodamineB = CCN(CC)c1ccc2c(-c3ccccc3C(=O)*)c3ccc(=[N+](CC)CC)cc-3oc2c1; X1 = CC[N+](CC)=c1ccc2c(-c3ccccc3C(=O)*)c3c(oc-2c1)-c1ccc(N(C)C)cc1CC3; X3 = CCN(CC)c1ccc2cc(C(=O)N[C@@H](CCCCN*)C(=O)O)c(=O)oc2c1; X2 = O=C(c1ccccc1-c1c2ccc(=O)cc-2oc2cc(O)ccc12)*; AEEA = NCCOCCOCC(=O)O; Sar = CNCC(=O)O
How the values were obtained:
[1] = target: T1, α-chymotrypsin (bovine pancreas, TLCK treated, type VII) (Bos taurus, UniProt P00766); assay: Single protease detection with the triple-FRET 4-dye probe: chymotrypsin; format: biochemical; details: 5 μM probe, Tris–HCl pH 8.0, 37 °C, 45 min, λexc 425 nm, three parallels
T1 construct: α-chymotrypsin (bovine pancreas, TLCK treated, type VII, ≥40 units per mg protein); purchased Sigma-Aldrich (Steinheim, Germany); host or cells: bovine pancreas (tissue-derived)
Description: (§1) Trypsin (bovine pancreas, TPCK treated, ≥10 000 BAEE units per mg protein) and α-chymotrypsin (bovine pancreas, TLCK treated, type VII, ≥40 units per mg protein) were ordered from Sigma-Aldrich (Steinheim, Germany). Caspase-8 (human, recombinant, active, 5000 units per mg protein) was provided by Enzo Life Sciences, Inc. (New York, USA). All enzyme species were obtained in the form of lyophilized white to off-white powders. They were reconstituted according to the providers' instructions, aliquoted in Eppendorf tubes, and finally stored at −80 °C in a deep freezer (Arctiko, Esbjerg Kommune, Denmark). […]
(§2) The appropriate amount of the 4-dye probe (1) was dissolved in 950 μL of Tris–HCl buffer. […] Afterwards, the fluorescence emission spectrum upon excitation with the light source of 425 nm was measured at the time 0 using a fluorescence spectrometer (Cary Eclipse, Agilent Technologies, Santa Carla, CA, USA). […] Fluorescence emission responses were then repeatedly measured at the times 2, 5, 8, 12, 16, 20, 25, 30, 35, 40, and 45 min. During the entire period of the experiment, a fluorimeter cuvette was placed in a cell holder preheated to 37 °C, and located inside a fluorescence spectrometer.
(§3) Additionally, the rules for individual protease recognition could be graphically presented, using fluorescence emission ratios of suitable fluorophores measured at particular times. […]

[2] = target: T2, caspase-8 (Homo sapiens, UniProt Q14790); assay: LC-MS analysis of the probe cleaved by caspase-8; format: biochemical; details: LC-MS of cleavage fragments
T2 construct: Caspase-8 (human, recombinant, active, 5000 units per mg protein); purchased Enzo Life Sciences, Inc. (New York, USA)
T2 sequence (Q14790 217-374 limits assumed): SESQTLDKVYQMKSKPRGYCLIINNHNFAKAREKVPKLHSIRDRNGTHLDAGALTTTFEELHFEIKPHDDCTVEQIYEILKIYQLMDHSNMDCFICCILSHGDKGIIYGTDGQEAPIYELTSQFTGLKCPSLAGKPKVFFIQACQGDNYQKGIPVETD
T2 sequence (Q14790 385-479 limits assumed): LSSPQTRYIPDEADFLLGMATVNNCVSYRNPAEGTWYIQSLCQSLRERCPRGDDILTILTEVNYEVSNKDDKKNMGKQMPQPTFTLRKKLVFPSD

[3] = target: T3, trypsin (Bos taurus, UniProt P00760); assay: LC-MS analysis of the probe cleaved by trypsin; format: biochemical, bovine; details: LC-MS of cleavage fragments
T3 construct: Trypsin (bovine pancreas, TPCK treated, ≥10 000 BAEE units per mg protein); purchased Sigma-Aldrich (Steinheim, Germany); host or cells: bovine pancreas (tissue-derived)
T3 sequence (P00760 24-246): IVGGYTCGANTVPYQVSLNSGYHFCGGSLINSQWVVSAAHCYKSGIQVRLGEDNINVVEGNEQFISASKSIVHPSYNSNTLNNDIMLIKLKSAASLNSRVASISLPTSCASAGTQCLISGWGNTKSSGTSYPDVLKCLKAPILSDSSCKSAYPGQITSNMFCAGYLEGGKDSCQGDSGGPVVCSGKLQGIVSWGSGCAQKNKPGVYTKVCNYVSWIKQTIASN
Method: (§4) Following the successful development of the methodology for the separate detection of individual proteases in a sample, we decided to investigate and evaluate the possibilities of simultaneous detection of multiple enzymes. […] Consequently, some potential ambiguities and drawbacks were expected from the perspective of nonspecific cleavage of the 4-dye substrate 1 by chymotrypsin. The experiments of the two-enzyme detection were performed with all three theoretically possible pairs of the considered proteases in their low concentrations.

[4] = Stability in buffer solution without enzyme (fluorescence responses, blank sample); format: physicochemical; details: no enzyme, 5 μM probe, λexc 425 nm
Method: Enzyme assays were carried out in 0.1 M Tris–HCl buffer solution in ultrapure water, with the addition of NaCl (25 mM), EDTA (5 mM) and glycerol (2.5% v/v). The pH of the media (pH = 8.0) was adjusted by gradual dropwise addition of concentrated NaOH aqueous solution.
The appropriate amount of the 4-dye probe (1) was dissolved in 950 μL of Tris–HCl buffer. The resulting solution was placed into a plastic fluorimeter cuvette and preheated to 37 °C. Afterwards, the fluorescence emission spectrum upon excitation with the light source of 425 nm was measured at the time 0 using a fluorescence spectrometer (Cary Eclipse, Agilent Technologies, Santa Carla, CA, USA). Then 20 μL of 1 mM HCl with/without enzyme (trypsin or chymotrypsin) and 30 μL of physiological saline solution with/without enzyme (caspase-8) were added, resulting in a final volume of 1 mL of 5 μM 4-dye substrate (1). In the case of caspase-8, DL-dithiothreitol (10 mM) was also present in a buffer. Fluorescence emission responses were then repeatedly measured at the times 2, 5, 8, 12, 16, 20, 25, 30, 35, 40, and 45 min. During the entire period of the experiment, a fluorimeter cuvette was placed in a cell holder preheated to 37 °C, and located inside a fluorescence spectrometer.
As the three target proteases, trypsin, chymotrypsin, and caspase-8 were considered. […] During the biological testing, the emission responses of all four dyes were monitored throughout the entire period of the experiment. The assay conditions and parameters were established based on our practical observations, theoretical facts, and previous experience.[12,28,29] To obtain a uniform incubation medium suitable for all three proteases detection, the appropriate conditions for trypsin and chymotrypsin sensing were combined with those suitable for caspase-8 screening. As a result, EDTA, NaCl and glycerol were added to the Tris–HCl buffer solution, and its pH value was set to 8.0. After dissolving the intact 4-dye probe (1) in that way prepared buffer, the emission responses of all four fluorophores were monitored within 45 min of incubation at 37 °C.

[5] = target: T4, Caspase-8 (human, recombinant, active) (Homo sapiens, UniProt Q14790); assay: Single protease detection with the triple-FRET 4-dye probe: caspase-8; format: biochemical; details: 5 μM probe, Tris–HCl pH 8.0 with DTT 10 mM, 37 °C, 45 min, λexc 425 nm, three parallels
T4 construct: Caspase-8 (human, recombinant, active, 5000 units per mg protein); purchased Enzo Life Sciences, Inc. (New York, USA)
T4 sequence (Q14790 217-374 limits assumed): as the sequence (Q14790 217-374 limits assumed) above
T4 sequence (Q14790 385-479 limits assumed): as the sequence (Q14790 385-479 limits assumed) above
Description: as §1, §2, §3

[6] = target: T5, Trypsin (bovine pancreas, TPCK treated) (Bos taurus, UniProt P00760); assay: Single protease detection with the triple-FRET 4-dye probe: trypsin; format: biochemical; details: 5 μM probe, Tris–HCl pH 8.0, 37 °C, 45 min, λexc 425 nm, three parallels
T5 construct: Trypsin (bovine pancreas, TPCK treated, ≥10 000 BAEE units per mg protein); purchased Sigma-Aldrich (Steinheim, Germany); host or cells: bovine pancreas (tissue-derived)
T5 sequence (P00760 24-246): T3 sequence (P00760 24-246)
Description: as §1, §2, §3

[7] = Storage stability of the solid, LC-MS; format: physicochemical; details: solid powder stored at −80 °C; dissolved to 50 μM in Tris–HCl pH 8.0 and analysed by LC-MS, repeated over 30 days
Method: The isolated 4-dye substrate (1) was characterized by LC-MS analysis and HRMS. Its final purity was determined based on LC-MS analysis, testing different analytical columns, mobile phases, gradients and elution times (ESI – Fig. S6 and S7 ^†). For stability testing, the 4-dye probe (1) in the form of powder (stored at −80 °C) was dissolved in an appropriate volume of Tris–HCl buffer (pH = 8.0) to obtain a 50 μM solution and subsequently analyzed by LC-MS. This process was repeated a few times over 30 days.
Due to its size and complexity, the 4-dye probe (1) was also briefly examined from the solubility in aqueous media point of view. It turned out that at least 0.5 mM stock solution of the target substrate (1) in Tris–HCl buffer (pH = 8.0) could be promptly and efficiently prepared. For comparison, a solution of a hundredfold lower concentration (5 μM) of the 4-dye probe (1) in the same buffer media was utilized in the biological assays. The relatively high solubility of the substrate (1) could be attributed to its structure (Fig. 1), comprising six polyethylene glycol-based (PEG) spacers and two charged fluorophores (Rhodamine B and HN6). Moreover, three terminal carboxyl groups of the peptide backbone are instantly turned into corresponding carboxylate salts in a basic buffer environment, contributing to the solubility of the 4-dye probe (1) in aqueous media. […]

[8] = Solubility in aqueous media (Tris–HCl buffer); format: physicochemical; details: Tris–HCl buffer pH 8.0, from solid, read-out: solubility: stock solution that could be promptly and efficiently prepared
Method: Due to its size and complexity, the 4-dye probe (1) was also briefly examined from the solubility in aqueous media point of view. It turned out that at least 0.5 mM stock solution of the target substrate (1) in Tris–HCl buffer (pH = 8.0) could be promptly and efficiently prepared. For comparison, a solution of a hundredfold lower concentration (5 μM) of the 4-dye probe (1) in the same buffer media was utilized in the biological assays. The relatively high solubility of the substrate (1) could be attributed to its structure (Fig. 1), comprising six polyethylene glycol-based (PEG) spacers and two charged fluorophores (Rhodamine B and HN6). Moreover, three terminal carboxyl groups of the peptide backbone are instantly turned into corresponding carboxylate salts in a basic buffer environment, contributing to the solubility of the 4-dye probe (1) in aqueous media. Afterwards, its stability was taken into consideration. The dark blue powder obtained after freeze-drying was dissolved in an appropriate volume of Tris–HCl buffer (pH = 8.0), and shortly after that, LC-MS analysis was performed. The process was repeated a few times within one month.

[9] = target: T6, chymotrypsin (Bos taurus, UniProt P00766); assay: LC-MS analysis of the probe cleaved by chymotrypsin; format: biochemical, bovine; details: LC-MS of cleavage fragments; chymotrypsin 2.5 µg/mL, 2 hours
T6 construct: α-chymotrypsin (bovine pancreas, TLCK treated, type VII, ≥40 units per mg protein); purchased Sigma-Aldrich (Steinheim, Germany); host or cells: bovine pancreas (tissue-derived)
Method: as §4
Figure S10: LC-MS analysis of the 4-dye probe cleaved by chymotrypsin (2.5 µg/mL, 2 hours).
Fragment 1 (Rt = 1.46 min) […]

[10] = 16 min vs 0 min, Tris–HCl pH 8.0, 37 °C, mean of 3 parallels
[11] = 45 min vs 0 min, Tris–HCl pH 8.0, 37 °C, mean of 3 parallels

lowest detectable concentration of chymotrypsin [1]: 0.2 µg/mL | sites of the probe cleaved by caspase-8 [2]: cleave only their own recognizable sites | sites of the probe cleaved by trypsin [3]: cleave only their own recognizable sites | lowest detectable concentration of caspase-8 [5]: 2 U mL^−1 | lowest detectable concentration of trypsin [6]: 0.5 ng/mL
SMILES: CCN(CC)c1ccc2cc(C(=O)N[C@@H](CCCCNC(=O)COCCOCCNC(=O)[C@H](C)NC(=O)[C@H](CC(=O)O)NC(=O)[C@@H](NC(=O)[C@H](CCC(=O)O)NC(=O)[C@H](CC(C)C)NC(=O)COCCOCCNC(=O)[C@H](CCCCNC(=O)CN(C)C(=O)c3ccccc3-c3c4ccc(=O)cc-4oc4cc(O)ccc34)NC(=O)COCCOCCNC(=O)[C@H](C)NC(=O)[C@H](CCCCN)NC(=O)[C@H](C)NC(=O)COCCOCCNC(=O)[C@H](CCCCNC(=O)CN(C)C(=O)c3ccccc3-c3c4ccc(=[N+](CC)CC)cc-4oc4cc(N(CC)CC)ccc34)NC(=O)COCCOCCNC(=O)[C@H](C)NC(=O)[C@H](Cc3ccccc3)NC(=O)[C@H](C)NC(=O)COCCOCCNC(=O)CN(C)C(=O)c3ccccc3-c3c4ccc(=[N+](CC)CC)cc-4oc4c3CCc3cc(N(C)C)ccc3-4)[C@@H](C)O)C(=O)O)c(=O)oc2c1 [4-dye probe (1)] (X1-[Sar][AEEA]AFA[AEEA]K([Sar-RhodamineB])[AEEA]AKA[AEEA]K([Sar-X2])[AEEA]LETDA[AEEA]-X3)
fluorescence intensities of all four dyes during incubation in buffer (stability in buffer) ([4]; Tris–HCl pH 8.0 with NaCl, EDTA, glycerol, 37 °C, 45 min): practically unchanged | DEAC (I16/I0) [4, 10]: 1.03 | DEAC(I16/I0)/FL(I16/I0) [4, 10]: 0.99 | FL (I16/I0) [4, 10]: 1.04 | HN6 (I16/I0) [4, 10]: 0.97 | DEAC (I45/I0) [4, 11]: 1.05 | DEAC(I45/I0)/FL(I45/I0) [4, 11]: 0.97 | FL (I45/I0) [4, 11]: 1.08 | HN6 (I45/I0) [4, 11]: 0.97 | stability on storage (comparable LC-MS chromatograms and peak areas) [7]: at least 30 days | solubility [8]: ≥ 500 µM | sites of the probe cleaved by chymotrypsin [9]: both chymotrypsin and trypsin linkers were cleaved

From PMC9549473, “Triple-FRET multi-purpose fluorescent probe for three-protease detection” (RSC Advances, 2022)
